Consider 37 sequences from the supplement of paper PMC12764529.

± gives the half width of the 95% confidence interval.

Data set [1] can be described thus: folding stability dG unfold from trypsin proteolysis; higher = more stable. In short, it runs like this:
(§1)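 Unfolding free energy was derived, per protease or combined, against a sequence-predicted unfolded-state K50 and a shared folded-state K50, starting from K50 inferred by Bayesian fitting of sequencing counts. Digestion with trypsin and chymotrypsin was carried out on designed mini-proteins under 80 residues without cysteine in a PA-tagged cDNA display construct. Only designs with AlphaFold2 dimer inter-PAE above 15 were kept.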

Data set [2] is described as follows: folding stability dG unfold from chymotrypsin proteolysis; higher = more stable. The procedure, abridged: as §1
A short description of data set [3]: folding stability dG unfold (combined trypsin and chymotrypsin); higher = more stable. In short, it runs like this: as §1

On to “ATVTITDVSFDPETNTITVTVTVTGPDGTTTTFTATFRIEPAPPPAPPAPVYVVDDDGKVYNLDTGEWKDVS [r1_270_TrROS_Hall]”, for which the “folding stability dG unfold” value in data set [1] came out at 2.12 ± 0.048 kcal/mol; in data set [2], 2.3 ± 0.037 kcal/mol; in data set [3], 2.21 ± 0.054 kcal/mol.
The corresponding values for “ATVTVEKLPDGYRVTVTIGATYIDPETGKPVELSAPVTAFVPPEVPDPEVAAKRAAAEALAEFLAALPEGGS [r1_414_TrMRF]” are 2 ± 0.057 kcal/mol, 1.74 ± 0.023 kcal/mol and 1.85 ± 0.091 kcal/mol.
As for “DWLIRIKFTYKGPDGNKHEMKIIVRVPESPEQAKEEVEDIARMIMEEQGYPPENIKKIKVEVIPPGEELTPS [r1_159_TrROS]”, the “folding stability dG unfold” value came to 3.46 ± 0.1 kcal/mol in data set [1], 4.203 ± 0.041 kcal/mol in data set [2] and 3.91 ± 0.14 kcal/mol in data set [3].
The corresponding values for “EAFEKAIEAAIEAAEKGEKETEITLPLPDGKAIRVHATVEVKDGKPVRVDIHVELYGPNNVPYPFTLTITAS [r1_254_TrMRF]” are 2.37 ± 0.13 kcal/mol, 2.83 ± 0.13 kcal/mol and 2.38 ± 0.18 kcal/mol.
For “EKYIVKIKITVRRKVETETLPDGSKKTRYETKTLEIEIEVSLEELKKLLEELNLPEDEITSVEIEVYPEEES [r1_351_TrROS_Hall]”, the “folding stability dG unfold” value worked out at 3.3 ± 0.24 kcal/mol in data set [1], 4.58 ± 0.32 kcal/mol in data set [2] and 4.31 ± 0.73 kcal/mol in data set [3].
On to “EMTEEELREKLPELSPEELEELARKLAEELGIEEVEEVEVVSVKPDGTIEVKVKLKDGEELTIEIPLEELLS [r1_435_TrROS_Hall]”, for which the “folding stability dG unfold” value in data set [1] turned out to be 2.8 ± 0.26 kcal/mol; in data set [2], 2.07 ± 0.15 kcal/mol; in data set [3], 2.47 ± 0.22 kcal/mol.
The corresponding values for “ERDLIVIAGDDLTPEQLRELLEELGFRPEDAEIFREGDALLIVLPDAVILVVRPPPLPVLSEDDPELLEEAS [r1_57_TrMRF]” are 3.22 ± 0.16 kcal/mol, 3.28 ± 0.23 kcal/mol and 3.19 ± 0.2 kcal/mol.
The corresponding values for “ETIYLSSSNPEEVIKALKEAASKGKTVVVEANPEFFKEFIAQGFKVEKILKIEPIPGGDGYRAEIKISPGGS [r1_173_TrMRF]” are 1.64 ± 0.082 kcal/mol, 1.95 ± 0.063 kcal/mol and 1.97 ± 0.14 kcal/mol.
For “FKFKITELSFNPEWGYIHFNVKVEGPDGQPQTFPIMIRIRIPPPPPPPPPPMRADPDGKVRNPDDGKEHDAS [r1_270_TrROS]” the same measures were 3.3 ± 0.1 kcal/mol, 4.9 ± 0.27 kcal/mol and 4.26 ± 0.63 kcal/mol.
Take “GEVVERLKLPDLELVEVRTTTEGDTTFVYVKLKRPDSYYVVKLTVTPATGEVTVTEEKKVSPNETLEEVLAS [r1_383_JUSTAS]”: the figures for the “folding stability dG unfold” value in data set [1], in data set [2] and in data set [3] were 1.66 ± 0.12 kcal/mol, 2.76 ± 0.12 kcal/mol and 2.36 ± 0.21 kcal/mol, respectively.
For the sequence “GFEVTAEIEVYEDPESGAKVVKVTIPVKNGDPEVLEKAAKELAKKLFGPGAKFDPKIDPETGRVEVTGVLAS [r1_273_TrMRF]”, the “folding stability dG unfold” value in data set [1] came out at 0.942 ± 0.046 kcal/mol; in data set [2] it was 1.57 ± 0.07 kcal/mol; in data set [3], 1.38 ± 0.13 kcal/mol.
In the case of “GKAEVVRVEYDPETGALRVVLRREGADVVLEVDPETGVARVYFPADPRVLEFEFDTLEEAVDAAVALLEAGS [r1_177_TrMRF]”, the “folding stability dG unfold” value in data set [1] was found to be 3.59 ± 0.17 kcal/mol; in data set [2] it was 4.66 ± 0.14 kcal/mol; in data set [3], 4.36 ± 0.14 kcal/mol.
For “GLTVTLDGNSLTVTADAGDKTVTVTAPVFHPEKGLVTVVTVTATREDGALVLHTESRTIRLPPLPPLHPDLS [r1_100_TrMRF]” the same measures were 2.21 ± 0.29 kcal/mol, 4.18 ± 0.57 kcal/mol and 3.59 ± 0.43 kcal/mol.
For “GLVDEDGKEVFPEVPLVIELDVPENLPDGKKLSPEEVEKLVKGLAEKLKKEYNVKKVEAERKGNKVLILVGS [r1_369_TrMRF]” the same measures were 0.688 ± 0.058 kcal/mol, 0.519 ± 0.15 kcal/mol and 0.706 ± 0.1 kcal/mol.
For “GMNLKETTVTIPLKVKSEEEAKKKAEEIANELKKKYPDIIEIKIEIKEIDKETGIVIITIKFKAKNSSVLLS [r1_52_JUSTAS]” the same measures were 2.18 ± 0.33 kcal/mol, 1.27 ± 0.14 kcal/mol and 2 ± 0.55 kcal/mol.
As for “GSAGVMFGSREDIEALAAALGPDVAPTDVTYDPSGYYYYTIPLPDGTPTSLTIPPDKYSPEEVAALARRLTS [r1_279_JUSTAS]”, the “folding stability dG unfold” value in data set [1] was -0.346 ± 0.56 kcal/mol; in data set [2], 0.703 ± 0.15 kcal/mol; in data set [3], 0.481 ± 0.14 kcal/mol.
For “GSMTIPVVLPPGVRLPLSELWAIAKQYGGKLTATVYDPETGTSTSVTFPGGQLGDSTMAPGERTVNVTVVGS [r1_238_JUSTAS]” the same measures were 0.527 ± 0.031 kcal/mol, 0.825 ± 0.09 kcal/mol and 0.759 ± 0.076 kcal/mol.
Turning to “GSNAVEVTLEVEVTITDPKTPDNKTTTVTIPLTVKLPPSVTSLEELEALARERAEAVAAELGGTVVTVTPVS [r1_300_JUSTAS]”, the “folding stability dG unfold” value in data set [1] turned out to be 2.61 ± 0.098 kcal/mol; in data set [2], 2.42 ± 0.067 kcal/mol; in data set [3], 2.49 ± 0.089 kcal/mol.
The corresponding values for “GSVTIELVVPKGVDIPLALLAGIASTGKGKVTARISNPLSGKEIEVTFPGGGLGEAGVTEGINVVRLTVYGS [r1_238_TrMRF]” are 0.869 ± 0.1 kcal/mol, 1.29 ± 0.11 kcal/mol and 1.2 ± 0.19 kcal/mol.
For “GYTITSEVEEFEDPNSDAKYTKVTIPVVDGDPEVAREAAEEIAKERFGPGATLDIKYDPETGTVTATFTVAS [r1_273_JUSTAS]” the same measures were 0.511 ± 0.026 kcal/mol, 0.379 ± 0.1 kcal/mol and 0.563 ± 0.081 kcal/mol.
The corresponding values for “ITIRIPPNGNIRIEMIDPNGKWWTYTFPVKDPEENLQRLKDIIRDFFPGFEDVDVKITEVEDGWVTITVPLS [r1_389_TrROS]” are 4.05 ± 0.17 kcal/mol, 4.96 ± 0.23 kcal/mol and 4.76 ± 0.21 kcal/mol.
Turning to “KIEIVEIKKENGKITIKVKNPIPNAKLIIYLFNPKGEIVSAKTHPGPEVELEIEVPENESFSVLVKLFPPKS [r1_382_TrMRF]”, the “folding stability dG unfold” value was 3.35 ± 0.12 kcal/mol in data set [1], 4.24 ± 0.083 kcal/mol in data set [2] and 3.99 ± 0.14 kcal/mol in data set [3].
“KIKIEPGETVRIKVKVKLPDGEEKEIEIELSLEELEKKLGRPLTPEEILNLIKEEAEKKGFEVEEVEIEKES [r1_338_TrROS_Hall]”: the “folding stability dG unfold” value in data set [1] was found to be 0.391 ± 0.12 kcal/mol; in data set [2], 1.38 ± 0.12 kcal/mol; in data set [3], 0.961 ± 0.36 kcal/mol.
The corresponding values for “KIPITIEEDPEDKMYELRVPDGMPIQIQRSKDGYRVSIWNPDNGKPREIPITKKDLKDLLSNPGFWIEIYKS [r1_18_TrROS]” are 1.64 ± 0.062 kcal/mol, 1.56 ± 0.078 kcal/mol and 1.77 ± 0.11 kcal/mol.
The corresponding values for “KIVILEPGEEAELPGVKVIPVDGLRIREVEVNGKKILVIEMSEEEIENGNEEELEKLRELAEELGADEVILS [r1_438_TrROS_Hall]” are 1.13 ± 0.072 kcal/mol, 1.27 ± 0.062 kcal/mol and 1.14 ± 0.26 kcal/mol.
For the sequence “KKIHIMFNNPQHVRRIAKKLGPNVKPDDVKKNPNGYYYFEIDLPNGRPIDIHIPSENMPAEDIVDYALEMLS [r1_279_TrROS]”, the “folding stability dG unfold” value amounted to 0.88 ± 0.02 kcal/mol in data set [1], 0.86 ± 0.089 kcal/mol in data set [2] and 0.894 ± 0.058 kcal/mol in data set [3].
With “KKKILIFITGDNPELAERIRKELEELGYDVEVKVVTTPEEMEKAIEEAEKTDIVIVIHLPPALPLSPELAFS [r1_497_TrMRF]”, the figures for the “folding stability dG unfold” value in data set [1], in data set [2] and in data set [3] were 2.58 ± 0.13 kcal/mol, 0.709 ± 0.12 kcal/mol and 1.9 ± 0.19 kcal/mol, respectively.
For “KMEIKIEVEKVKDEETGEEYIEVKIVVKKENVEEALEKVKKILEEEFNYEIVDVKVEKKDDYVVITVKIRLS [r1_337_TrROS_Hall]” the same measures were 3.15 ± 0.22 kcal/mol, 2.21 ± 0.41 kcal/mol and 2.89 ± 0.53 kcal/mol.
“KSKEEQKEQQEEQQKPPPVEIKVEVEVVKSPNGNPYFQFNVEYYDPGDGEPIGEITISVPPDDVDELADEFS [r1_415_TrROS]”: the “folding stability dG unfold” value turned out to be 1.97 ± 0.4 kcal/mol in data set [1], 2.63 ± 0.25 kcal/mol in data set [2] and 2.46 ± 0.71 kcal/mol in data set [3].
The corresponding values for “KTISSDELLELLGVSKSELKKLPLEAIVDEVKKALPPGVAVSAKAEPIPENPSYTIVVELKNGEPVTITLDS [r1_340_TrMRF]” are 1.06 ± 0.041 kcal/mol, 1 ± 0.026 kcal/mol and 0.964 ± 0.12 kcal/mol.
The corresponding values for “KTLVIHAKTPEEILAAIKEAIKEGKTVVIEMSPELIEALKEAGFEIEKIEEVEEIDGKKIYRVVIEVKPKES [r1_173_TrROS_Hall]” are 1.66 ± 0.084 kcal/mol, 3.36 ± 0.058 kcal/mol and 2.87 ± 0.2 kcal/mol.
Consider “KTVMIMFKNPEQILNQLREARDDGKTVSIMFPDEWINELKNLGFKIDKITDVQPMPGNDSYMVEIKIKPKDS [r1_173_TrROS]”, for which the “folding stability dG unfold” value in data set [1] turned out to be 1.29 ± 0.12 kcal/mol; in data set [2], 2.31 ± 0.12 kcal/mol; in data set [3] it was 1.95 ± 0.2 kcal/mol.
“SAGGDVGLEEKAREIAEELREEISKKLGVNVKVTEVKVEYDPKTGKYTVTVTITLPGGETITITVPESAGGS [r8_372_JUSTAS]”: the “folding stability dG unfold” value amounted to 3.85 ± 0.32 kcal/mol in data set [1] and 4.36 ± 0.54 kcal/mol in data set [2].
The corresponding values for “SAGGKPKKKPPPVIEIVDIRVEYDPETKEVRITVKIRLPNGETLTLTITVPPGTTLEELLEKLKELLSSAGG [r13_578_TrROS_Hall]” are 4.11 ± 0.61 kcal/mol and 2.71 ± 0.11 kcal/mol.
The corresponding values for “SAGGSAGGDPNKPPPPKQIEIPIPPDNITDVEPNPDGFYFMEFNLPDGDSITIIVYPDGNIHIMSAGGSAGG [r6_119_TrROS]” are 2.83 ± 0.28 kcal/mol and 4.25 ± 0.34 kcal/mol.
With “SAGGSAGGSAGGKKKLKIKIEIKIEEKIKKTPNGKLEKEKKIEITKIIEIEPDSPLLKKLSAGGSAGGSAGG [r7_889_TrROS_Hall]”, the “folding stability dG unfold” value in data set [1] was determined as 2.17 ± 0.14 kcal/mol; in data set [2] it was 0.948 ± 0.29 kcal/mol.
Turning to “SAGGSAGGSAGMITIYAPPSVPVEEVREEVKEKIKKENPNDPKEVKGVEVDPNGSLEELESAGGSAGGSAGG [r17_43_JUSTAS]”, the “folding stability dG unfold” value is -0.286 ± 0.12 kcal/mol in data set [1] and -0.655 ± 0.31 kcal/mol in data set [2].
